# Reference: paper PMC2851401 (Journal of molecular biology, 2010)
# B1: chimeric rabbit/human Fab SJS-R1 as the selected phage display clone in pC3C (Fab, V domains shown)
# VH: QEQLVESGGRLVTPGTALTLTCKVSGFSLSGFWLNWVRQAPGKGLEWVGAIYRGSGSEWYASWAKGRFTISDTSTTVTLKLTSPTTEDTATYFCAADTTDNGYFTIWGPGTLVTVSS
# VL: ELVMTQTPSSVSEPVGGTVTIKCQASQSISSWLSWYQQKPGQPPKLLIYDASNLASGVPSRFMGSGSGTEYTLTISGVQREDAATYYCLGGYPAASYRTAFGGGTELEII
# Assays:
# [1] = biological target: Rev (Human immunodeficiency virus 1) (UniProt P04325); settings: cited from earlier work
# [2] = biological target: biotinylated HIV-1 Rev with C-terminal Avitag (HIV-1, UniProt P04616); experiment: ELISA
# Chain of biotinylated HIV-1 Rev with C-terminal Avitag (P04616 whole entry): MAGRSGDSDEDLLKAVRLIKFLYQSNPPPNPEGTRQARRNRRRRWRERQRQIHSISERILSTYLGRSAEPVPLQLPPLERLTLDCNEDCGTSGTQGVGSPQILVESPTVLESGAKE
Molecule,Kd [1] [nM],binding result [2]
Rev (from UniProt P04325),1000,
B1,,binds
